Assay results published in patent publication US20030109454A1 (ADHEREX TECHNOLOGIES, published 2003).

B1: N-Ac-INAISGQ-NH2 (peptide)
peptide: Ac-INAISGQ-NH2
B2: N-Ac-LNPISGQ-NH2 (peptide)
peptide: Ac-LNPISGQ-NH2
B3: N-Ac-CINPC-NH2 (peptide)
peptide: Ac-CINPC-NH2
modifications: also: cyclic peptide, ring type not given here
B4: N-Ac-CINPIC-NH2 (peptide)
peptide: Ac-CINPIC-NH2
modifications: not fully specified (bridges); also: cyclic peptide, linkage not given here
B5: N-Ac-CINPISC-NH2 (peptide)
peptide: Ac-CINPISC-NH2
modifications: not fully specified (bridges); printed as N-Ac-CINPISC-NH2; also: cyclic peptide, linkage not given here
B6: N-Ac-WLKIDPVNGQI-NH2 (peptide)
peptide: Ac-WLKIDPVNGQI-NH2
B7: N-Ac-WLKADPVNGQI-NH2 (peptide)
peptide: Ac-WLKADPVNGQI-NH2
B8: N-Ac-WLKIDAVNGQI-NH2 (peptide)
peptide: Ac-WLKIDAVNGQI-NH2
B9: N-Ac-WLKADAVNGQI-NH2 (peptide)
peptide: Ac-WLKADAVNGQI-NH2
B10: N-Ac-IDPVNGQ-NH2 (peptide)
peptide: Ac-IDPVNGQ-NH2
B11: H-WLKIDPVNGQI-OH (peptide)
peptide: H-WLKIDPVNGQI-OH
B12: N-Ac-NLKIDPVNGQI-NH2 (peptide)
peptide: Ac-NLKIDPVNGQI-NH2
B13: N-Ac-INPISGQ-NH2 (peptide)
peptide: Ac-INPISGQ-NH2
B14: H-LKIDPVNGQI-OH (peptide)
peptide: H-LKIDPVNGQI-OH
B15: H-LKIDPANGQI-OH (peptide)
peptide: H-LKIDPANGQI-OH
B16: H-LKIDAVNGQI-OH (peptide)
peptide: H-LKIDAVNGQI-OH
B17: N-Ac-CIDPVNC-NH2 (peptide)
peptide: Ac-CIDPVNC-NH2
modifications: not fully specified (bridges); printed as N-Ac-CIDPVNC-NH2; also: cyclic peptide, linkage not given here
B18: N-Ac-INPASGQ-NH2 (peptide)
peptide: Ac-INPASGQ-NH2

Experiments:
Assay in all cases: cell-based or functional assay
[1] = molecular target: N-cadherin expressed on transfected 3T3 cells
[2] = molecular target: N-cadherin expressed on transfected 3T3 cells; remark: listed apart in the source
[3] = molecular target: N-cadherin expressed on transfected 3T3 cells; remark: listed apart in the source
[4] = molecular target: N-cadherin expressed on transfected 3T3 cells; remark: listed apart in the source

Binder | percent inhibition of neurite outgrowth, peptide at 100 µg/ml [4] [%] | percent inhibition of neurite outgrowth, peptide at 250 µg/ml [4] [%] | further results
B1 | – | – | percent inhibition of neurite outgrowth on 3T3 cells expressing N-cadherin, peptide at 100 µg/ml [1]: 37.2%
B2 | – | – | percent inhibition of neurite outgrowth on 3T3 cells expressing N-cadherin, peptide at 100 µg/ml [1]: 19.2%
B3 | – | – | EC50 of inhibition of neurite outgrowth on 3T3 cells expressing N-cadherin [2]: 14.3 µM
B4 | – | – | EC50 of inhibition of neurite outgrowth on 3T3 cells expressing N-cadherin [2]: 38.2 µM
B5 | – | – | EC50 of inhibition of neurite outgrowth on 3T3 cells expressing N-cadherin [2]: 38.1 µM
B6 | 66.9 | 83.5 | EC50 of inhibition of neurite outgrowth [3]: 46 µM; percent inhibition of neurite outgrowth, peptide at 33 µg/ml [4]: 19.8%
B7 | 22.2 | 54.7 | –
B8 | 12.4 | 52.3 | –
B9 | 10.5 | 19.7 | –
B10 | 56.4 | 85.6 | percent inhibition of neurite outgrowth, peptide at 33 µg/ml [4]: 34.3%
B11 | 76.1 | – | –
B12 | 67.8 | 86.8 | percent inhibition of neurite outgrowth, peptide at 33 µg/ml [4]: 25.6%
B13 | – | – | percent inhibition of neurite outgrowth on 3T3 cells expressing N-cadherin, peptide at 100 µg/ml [1]: 94.5%
B14 | 46 | – | –
B15 | 56.8 | – | –
B16 | 104 | – | –
B17 | 75.8 | 96.4 | percent inhibition of neurite outgrowth, peptide at 33 µg/ml [4]: 40.6%
B18 | – | – | percent inhibition of neurite outgrowth on 3T3 cells expressing N-cadherin, peptide at 100 µg/ml [1]: 7.2%
